US20220372138A1 (IOMX THERAPEUTICS, published 2022)
Substitutions are numbered along the chain they refer to.

T1: human IGSF11 (VSIG3) expressed on cells (human, UniProt Q5DX21 23-431)
T1 sequence: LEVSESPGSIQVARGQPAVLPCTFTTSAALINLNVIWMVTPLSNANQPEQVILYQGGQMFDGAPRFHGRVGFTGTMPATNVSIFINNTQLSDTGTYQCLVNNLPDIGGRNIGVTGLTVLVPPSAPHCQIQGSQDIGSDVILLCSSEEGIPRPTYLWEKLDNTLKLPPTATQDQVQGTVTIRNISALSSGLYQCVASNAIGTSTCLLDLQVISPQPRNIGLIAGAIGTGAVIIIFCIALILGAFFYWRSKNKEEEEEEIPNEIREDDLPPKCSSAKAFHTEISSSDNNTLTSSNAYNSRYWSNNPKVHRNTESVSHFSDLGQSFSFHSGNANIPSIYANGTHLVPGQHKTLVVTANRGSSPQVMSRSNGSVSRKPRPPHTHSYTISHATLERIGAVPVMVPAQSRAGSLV

T2: ECD of murine IGSF11, recombinant biotinylated (mouse, UniProt P0C673 23-240)
T2 construct: whole entry named; also called Mouse IGSF11
T2 sequence: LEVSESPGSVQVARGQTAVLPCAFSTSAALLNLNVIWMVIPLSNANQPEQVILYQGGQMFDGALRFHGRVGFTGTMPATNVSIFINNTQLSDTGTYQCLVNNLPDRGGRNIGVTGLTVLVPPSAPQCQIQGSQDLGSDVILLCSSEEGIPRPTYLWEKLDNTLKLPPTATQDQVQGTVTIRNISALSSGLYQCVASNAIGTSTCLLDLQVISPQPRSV

T3: human IGSF11 (VSIG3) ECD, His-tagged (human, UniProt Q5DX21 23-241)
T3 construct: in part bought (SinoBiological 13094-H08H); also called HIS-IGSF11; IGSF11-HIS; not shown: His tag
T3 sequence: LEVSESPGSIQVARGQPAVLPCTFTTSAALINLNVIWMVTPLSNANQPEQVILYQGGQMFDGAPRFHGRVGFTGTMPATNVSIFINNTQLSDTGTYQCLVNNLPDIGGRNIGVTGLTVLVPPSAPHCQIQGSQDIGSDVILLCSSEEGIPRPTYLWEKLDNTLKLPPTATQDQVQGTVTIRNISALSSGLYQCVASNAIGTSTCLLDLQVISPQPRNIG

T4: full-length ECD of human IGSF11 fused to murine Fc (human, UniProt Q5DX21 23-241)
T4 construct: also called Fc-fusion IGSF11 ECD; not shown: murine Fc
T4 sequence: T3 sequence

T5: IgV domain of human IGSF11 fused to murine IgG2a Fc (human, UniProt Q5DX21 23-143)
T5 construct: not shown: murine IgG2a Fc-region
T5 sequence: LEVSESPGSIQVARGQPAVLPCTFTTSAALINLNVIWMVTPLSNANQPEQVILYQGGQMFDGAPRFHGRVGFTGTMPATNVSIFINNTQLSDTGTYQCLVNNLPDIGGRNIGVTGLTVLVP

T6: extracellular domain (ECD) of human IGSF11 (VSIG3), recombinant (human, UniProt Q5DX21 23-241)
T6 construct: biotinylated where captured on streptavidin; tags of the reagent not always stated; also called IGSF11 (ECD domain); ECD-IGSF11
T6 sequence: T3 sequence

B1: A-015 (IgG1 format) (antibody, V domains shown)
VH: not shown
VL: QPVLTQSPSASASLGASVKLTCTLSSGHTNYAIAWRQQQPGKAPRYLMLLNSDGSHTRGGGIPDRFSGSSSGAERYLTISSLQSEDEADYYCMIWHNNAWVFGGGTKLAVL
notes: human IgG1 format
B2: A-022 (scFv format) (scFv, V domains shown)
VH: EVQLLESGPGLVKPSQTLSLTCTVSGGSISSGGYYWSWIRQHPGKGLEWIGYIYYSGSTYYNPSLKSRVTISVDTSKNQFSLKLSSVTAADTAVYYCARASRSTDYYFDYWGQGTLVTVSS
VL: QPGLTQPPSMSYGLGQTATLTCTGNRNNIGDQGAAWLQQHQGHPPKLLSYRNNNGPSGISERLSASRSGNTASLTISGLQPEDEADYYCSAWDSSLRAWVFGGGTKLTVL
notes: scFv
B3: A-035 (scFv format) (scFv, V domains shown)
VH: QVQLVQSGAEVKKPGASVKVSCKASGYTFTGYYMHWVRQAPGQGLEWMGWINPNSGNTGYAQKFQGRVTMTRNTSISTAYMELSSLRSEDTAVYYCARGRLERGYWYFDLWGRGTLVTVSS
VL: NFMLTQPHSVSESPGRTVTISCTRSSGSITSNYVQWYQQRPGSAPTILIYEDKERPSEVPDRFSGSIDISSNSASLTISGLKTEDEADYYCQSYGGTSQGVLFGGGTKVTVL
notes: scFv
B4: A-004 (scFv format) (scFv, V domains shown)
VH: EVQLVESGGGLVKPGGSLRLSCAASGFTFSSYSMNWVRQAPGKGLEWVSSISSSSSYIYYADSVKGRFTISRDNAKNSLYLQMNSLRAEDTAVYYCARGQLLWFGESALIDAFDIWGQGTMVTVSS
VL: EIVLTQSPSSLSASVGDRVTITCRASQSISSYLNWYQLKPGKAPKLLIYAASILQSGVPSRFSGSGSGTDFTLTISSLQPEDFAAYYCQQSYSTPRTFGQGTKLEIK
notes: scFv
B5: A-001 (IgG1 format) (antibody, V domains shown)
VH: EVQLVESGGGLVKPGGSLRLSCAASGFTFSSYSMNWVRQAPGKGLEWVSSISSSSSYIYYADSVKGRFTISRDNAKNSLYLQMNSLRAEDTAVYYCVRSIIVQALGITSVFDIWGQGTMVTVSS
VL: AIRLTQSPSSLSASVGDRVTISCRASQIISNHLNWYQQKPGKAPKLLIYAASRLQTGVPSRFSGSGSETDYTLTISSLQPEDFATYYCQQSYSNPRTFGHGTKVEIK
notes: human IgG1 format
B6: A-016 (IgG1 format) (antibody, V domains shown)
VH: QVQLQESGAEVKKPGASVKVSCKASGYTFTGYYMHWVRQAPGQGLEWMGGIIPIFGTANYAQKFQGRVTITADESTSTAYMELSSLRSEDTAVYYCAGAGMELTRSGAYYYYGMDVWGQGTTVTVSS
VL: QSALTQPASVSGSPGQSITISCTGTSSDIGGYTFVSWYQQHPGKAPKVMIHDVNNRPSGISNRFSGSKSGNTASLTISGLQAEDEADYYCSSVTSTNTYVFGTGTKVTVL
notes: human IgG1 format
B7: C-008 (IgG1 format) (antibody, V domains shown)
VH: EVQLLESGGGLVQPGGSLRLSCAASGFTFSSYAMSWVRQAPGKGLEWVSAISGSGGSTYYADSVKGRFTISRDNSKNTLYLQMNSLRAEDTAVYYCTTDNGHNRDWGQGTLVTVSS
VL: ASVLTQPPSVSAAPGQKVTISCSGSSSNIGNNYVSWYQQLPGTAPKLLIYDNNKRPSGIPDRFSGSKSGTSATLGITGLQAEDEADYYCGTWTRSSGVFGGGTKLTVL
B8: C-025 (IgG1 format) (antibody, V domains shown)
VH: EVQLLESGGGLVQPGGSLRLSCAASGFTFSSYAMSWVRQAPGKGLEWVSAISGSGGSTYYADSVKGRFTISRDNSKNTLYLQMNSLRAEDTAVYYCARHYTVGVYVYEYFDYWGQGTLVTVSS
VL: SYELTQPPSVSVSPGQTASITCSGDKLGDKYASWYQQKPGQSPVLVIYQDSKRPSGIPERFSGSNSGNTATLTISGTQAEDEADYYCQSYATAGFVFGGGTKLTVL
B9: C-026 (IgG1 format) (antibody, V domains shown)
VH: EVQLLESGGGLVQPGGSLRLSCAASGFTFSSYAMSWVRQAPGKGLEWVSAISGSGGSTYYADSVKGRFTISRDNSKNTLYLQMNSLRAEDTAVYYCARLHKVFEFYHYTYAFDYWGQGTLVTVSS
VL: ASVLTQPPSVSAAPGQKVTISCSGSSSNIGNNYVSWYQQLPGTAPKLLIYDNNKRPSGIPDRFSGSKSGTSATLGITGLQAEDEADYYCASYSSETSGWVFGGGTKLTVL
B10: C-009 (IgG1 format) (antibody, V domains shown)
VH: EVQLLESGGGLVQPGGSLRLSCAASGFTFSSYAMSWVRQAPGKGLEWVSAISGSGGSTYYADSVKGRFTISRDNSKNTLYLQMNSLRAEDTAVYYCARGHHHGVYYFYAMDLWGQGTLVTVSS
VL: SYELTQPPSVSVSPGQTASITCSGDKLGDKYASWYQQKPGQSPVLVIYQDSKRPSGIPERFSGSNSGNTATLTISGTQAEDEADYYCQSYSGSSTLHVFGGGTKLTVL
B11: C-024 (IgG1 format) (antibody, V domains shown)
VH: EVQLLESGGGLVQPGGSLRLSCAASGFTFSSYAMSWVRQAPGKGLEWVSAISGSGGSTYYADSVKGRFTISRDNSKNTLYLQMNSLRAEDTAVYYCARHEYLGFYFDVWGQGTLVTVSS
VL: B10 VL with Q88L, S89A, Y90S, S91H, G92R, S93L, S94T, T95L, L96N, H97Y
B12: A-007 (scFv format) (scFv, V domains shown)
VH: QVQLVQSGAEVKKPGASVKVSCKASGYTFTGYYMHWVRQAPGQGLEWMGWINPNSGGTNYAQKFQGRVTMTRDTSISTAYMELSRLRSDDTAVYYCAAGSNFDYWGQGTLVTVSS
VL: QSALTQPASVSGSPGQSITIACTGSSSDIGSFSYVSWYQQRPGKAPTLIIYGVNNRPLGVSRRFSGSKSGNTASLSISGLQAEDEADYYCSSYTRRSTVIFGGGTKLTVL
notes: scFv
B13: A-010 (scFv format) (scFv, V domains shown)
VH: QVQLVQSGAEVKKPGASVKVSCKASGYTFTSYGISWVRQAPGQGLEWMGWISAYNGNTNYAQKLQGRVTMTTDTSTSTAYMELRSLRSDDTAVYYCARVPAWSGQFDYWGQGTLVTVSS
VL: QSALTQPASVSGSPGQSITISCTGSSSDVGGYNYVSWYQQYPGKAPKLMIYDVRSRPSGVSNRFSGSKSGNTASLTISGLQAEDEADYYCTSYTSSNTLVIFGGGTKVTVL
notes: scFv
B14: A-006 (scFv format) (scFv, V domains shown)
VH: EVQLVESGGGLIQPGGSLRLSCAASGFTVSSNYMSWVRQAPGKGLEWVSVIYSGGSTYYADSVKGRFTISRDNSKNTLYLQMNSLRAEDTAVYYCARGNPYYYGDLQVNFDYWGQGTLVTVSS
VL: QAVVTQEPSLTVSPGGTVTLTCASSTGAVTSGYYPNWFQQKPGQAPRPLIYSTSNKHSWTPARFSGSLLGGKAALTLSGVQPDDEAEYYCLLYYGGDWVFGGGTKLTVL
notes: scFv
B15: A-012 (scFv format) (scFv, V domains shown)
VH: B14 VH with V5L, A24V
VL: B14 VL with P48A, D83E, D97A
notes: scFv
B16: A-013 (scFv format) (scFv, V domains shown)
VH: B14 VH
VL: B14 VL with G32A, P48A, D83E, E87D, D97A
notes: scFv
B17: A-015 (scFv format) (scFv, V domains shown)
VH: not shown
VL: B1 VL
notes: scFv

biological target: T1, human IGSF11 (VSIG3) expressed on cells; assay: FACS, DMS 273 cells with IGSF11 siRNA (KD, knock-down control)

| Binder | % binding (FACS heat-map) [%] |
| --- | --- |
| B1 | 1.6 |

biological target: T2, ECD of murine IGSF11, recombinant …; assay: ELISA RFU>1.0

| Binder | ELISA binding signal (RFU) [rfu] |
| --- | --- |
| B2 | > 1 |
| B3 | > 1 |
| B4 | > 1 |

biological target: T1, human IGSF11 (VSIG3) expressed on cells; assay: FACS, M579-A2-luc cells with IGSF11 siRNA (KD, knock-down control)

| Binder | % binding (FACS heat-map) [%] |
| --- | --- |
| B1 | 1.3 |

biological target: T3, human IGSF11 (VSIG3) ECD, His-tagged; assay: IgG1 ELISA EC50 <0.02 nM

| Binder | EC50 [nM] |
| --- | --- |
| B5 | < 0.02 |
| B6 | < 0.02 |

biological target: T4, full-length ECD of human IGSF11 fused …; assay: IgG ELISA;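 note: ELISA binding of IgG antibodies to plate-coated IGSF11 Fc-fusion proteins (full-length ECD, IgV or IgC2 domain), detected via HRP-labelled anti-human IgG with TMB development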

| Binder | EC50 [nM] |
| --- | --- |
| B7 | < 1 |
| B8 | 1 to 20 |
| B9 | 1 to 20 |
| B10 | 1 to 20 |
| B11 | 1 to 20 |

biological target: T5, IgV domain of human IGSF11 fused to …; assay: IgG ELISA;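 note: ELISA binding of IgG antibodies to plate-coated IGSF11 Fc-fusion proteins (full-length ECD, IgV or IgC2 domain), detected via HRP-labelled anti-human IgG with TMB development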

| Binder | EC50 [nM] |
| --- | --- |
| B7 | < 1 |
| B8 | < 1 |
| B9 | < 1 |
| B10 | < 1 |
| B11 | 1 to 20 |

biological target: T1, human IGSF11 (VSIG3) expressed on cells; assay: FACS, DMS 273 cells with scrambled control siRNA (SC)

| Binder | % binding (FACS heat-map) [%] |
| --- | --- |
| B1 | 5.97 |

biological target: T1, human IGSF11 (VSIG3) expressed on cells; assay: FACS, M579-A2-luc cells with scrambled control siRNA (SC)

| Binder | % binding (FACS heat-map) [%] |
| --- | --- |
| B1 | 1.17 |

biological target: T2, ECD of murine IGSF11, recombinant …; assay: ELISA RFU 0.5-1.0

| Binder | ELISA binding signal (RFU) [rfu] |
| --- | --- |
| B12 | 0.5 to 1 |
| B13 | 0.5 to 1 |
| B14 | 0.5 to 1 |
| B15 | 0.5 to 1 |
| B16 | 0.5 to 1 |
| B17 | 0.5 to 1 |

biological target: T6, extracellular domain (ECD) of human …; assay: ELISA RFU 0.5-1.0

| Binder | ELISA binding signal (RFU) [rfu] |
| --- | --- |
| B2 | 0.5 to 1 |
| B12 | 0.5 to 1 |
| B13 | 0.5 to 1 |
| B14 | 0.5 to 1 |
| B15 | 0.5 to 1 |
| B16 | 0.5 to 1 |
| B3 | 0.5 to 1 |
| B17 | 0.5 to 1 |
| B4 | 0.5 to 1 |
